Assay results from the supplement of paper PMC9732359.
± gives the uncertainty stated by the source.

Experiment: protein stability index of a GFP-peptide fusion (yeast GPS) (PSI 1-4); higher = more stable; sorted into four equal gates, so the index is relative within each strain
In short: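 Mid-log yeast cultures in leucine-free medium, carrying a pooled plasmid library, were sorted into four equal gates by their GFP/Cherry fluorescence ratio. Each plasmid expressed Cherry along with GFP fused upstream of a tiled 17-residue yeast protein peptide. Plasmids recovered from each gate were PCR-amplified and Illumina-sequenced, with reads assigned to strains by barcodes. The protein stability index was obtained by summing each gate's read frequency weighted by its gate number.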

Sequence	protein stability index (doa10∆)	protein stability index (pdr5∆)	protein stability index (san1∆)	protein stability index (ubr1∆)
TPRGNHWMGSSVSGSPR [YMR129W/POM152]	3.25 ± 0.077	3.39 ± 0.077	3.01 ± 0.053	3.13 ± 0.064
IVSEDHIILDTISECNL [MED1]	2.87 ± 0.093	3.19 ± 0.081	3.2 ± 0.077	2.83 ± 0.12
PDGVVVHRDDPALVGKL [SNF6]	3.3 ± 0.071	3.49 ± 0.071	3.36 ± 0.054	3.33 ± 0.053
ANKEKRAIILERNAAYQ [RPL7A]	1.2 ± 0.072	1.38 ± 0.081	1.14 ± 0.11	1.32 ± 0.2
PFSFSSATSTTEQTKSK [YLR335W/NUP2]	2.99 ± 0.06	2.99 ± 0.058	2.85 ± 0.075	2.86 ± 0.054
EVFIGRVKDQDGRVNRF [YJR042W/NUP85]	3.44 ± 0.2	3.28 ± 0.28	3.5 ± 0.14	3.19 ± 0.17
DSQDYILSINAIDYEPE [SMC1]	3.25 ± 0.068	3.06 ± 0.058	3 ± 0.046	3.02 ± 0.038
FQETLDSTVVYPLPKFP [MED8]	3.05 ± 0.05	3.19 ± 0.044	2.95 ± 0.042	3.15 ± 0.044
NTEEKAELQSNLQVELL [YGL100W/SEH1]	3.06 ± 0.064	3.02 ± 0.087	1.96 ± 0.13	2.74 ± 0.083
YLMTYPQQPMVKTKTIE [RET1]	1.81 ± 0.099	1.69 ± 0.15	1.61 ± 0.24	1.08 ± 0.065
SKALYPDYYMIIKYPVA [SNF2]	2.37 ± 0.039	2.31 ± 0.038	2.02 ± 0.054	2.53 ± 0.031
GVERLIPVGDNTVVGIS [PRE4]	2.96 ± 0.089	2.91 ± 0.081	2.84 ± 0.064	2.69 ± 0.086
IGHLITKEEIMHGLQAK [RPN5]	2.91 ± 0.087	2.96 ± 0.091	2.94 ± 0.065	3.01 ± 0.067
ELGEQKCQELVTNIRRI [RRP46]	2.09 ± 0.072	1.81 ± 0.056	1.55 ± 0.15	1.98 ± 0.071
LGSSEAENLLQLKTGLA [YGL172W/NUP49]		3.29 ± 0.18	2.98 ± 0.085	2.5 ± 0.2
ENALIELKNELAKTKEN [YIL149C/MLP2]	2.82 ± 0.087	2.97 ± 0.07	2.98 ± 0.068	2.93 ± 0.08
MQLEEELMKLDGTEYVL [MED6]	3.26 ± 0.15	3.4 ± 0.11	3.21 ± 0.091	3.26 ± 0.076
GKTYMGWWGHMGGPKQK [QCR8]	1.88 ± 0.22	1.79 ± 0.11	1.63 ± 0.19	2.4 ± 0.14
NFNASLQLTTNTEQGDS [SNM1]	2.02 ± 0.039	2.3 ± 0.064	2.49 ± 0.055	1.85 ± 0.071
EPSGIYSSWSAQTIGRN [PRE6]	1.24 ± 0.064	1.21 ± 0.089	1.06 ± 0.18	1.53 ± 0.097
TRLKSLLKPFHVKVNDK [SIR3]	2.65 ± 0.093	2.96 ± 0.082	2.79 ± 0.075	2.81 ± 0.052
KGLVSQQLDSFNQFVDY [RPB2]	2.64 ± 0.077	2.52 ± 0.1	2.41 ± 0.078	2.6 ± 0.066
EGKKVMAPYLPGSRASS [RPN2]	2.47 ± 0.065	2.69 ± 0.074	2.4 ± 0.072	2.54 ± 0.052
SPAALKQLASLKKSEEI [YMR153W/NUP53]	2.2 ± 0.23	2.85 ± 0.13	2.65 ± 0.17	3.37 ± 0.15
NLSSNVNFTEIGGLIPQ [YCS4]	2.77 ± 0.071	2.46 ± 0.073	2.49 ± 0.08	2.47 ± 0.059
ATVDEFPLCVHLVSNEL [RPL10]	3.01 ± 0.073	2.93 ± 0.067	3.05 ± 0.069	2.99 ± 0.053

Sequence	protein stability index (doa10∆)	protein stability index (pdr5∆)	protein stability index (san1∆)	protein stability index (ubr1∆)
SNSTPNANQQFLPFNNS [SWI1]	3.25 ± 0.072	3.19 ± 0.058	2.96 ± 0.059	2.94 ± 0.052
IHGELKTYKEGINKNEE [SMC1]	2.94 ± 0.075	3.09 ± 0.051	2.87 ± 0.055	3.01 ± 0.046
EYGKHDFKNEESLSEEH [MED8]	3.3 ± 0.1	3 ± 0.081	3.1 ± 0.053	3.34 ± 0.054
ANFGEILEDFRVIKDFK [YMR153W/NUP53]	3.07 ± 0.14	3.4 ± 0.16	3.37 ± 0.068	3.28 ± 0.096
EQKNTAKEELNGLKDQL [YIL149C/MLP2]	3.19 ± 0.1	3.32 ± 0.16	3.12 ± 0.054	3.31 ± 0.07
NNNNNNNNNNNNDDNGN [MED2]	3.09 ± 0.038	2.94 ± 0.033	3.227 ± 0.029	3.23 ± 0.034
SVAEVFQKAQGSYAGHR [YCG1]	1.9 ± 0.11	1.38 ± 0.18	1.65 ± 0.24	1.5 ± 0.072
PRGVLLYGPPGTGKTML [RPT3]	3.07 ± 0.089	2.57 ± 0.11	2.9 ± 0.081	2.72 ± 0.074
MAPVKSQESINQKLALV [RPL30]	2.05 ± 0.11	2.53 ± 0.14	2.18 ± 0.13	2.25 ± 0.061
SQDTKVICSVTGPIEPK [RRP46]	1.68 ± 0.07	1.72 ± 0.072	1.94 ± 0.11	2.12 ± 0.076
TAFNKTRGPFHFRAPSR [RPL16B]	2.95 ± 0.09	3.14 ± 0.068	2.59 ± 0.066	3 ± 0.066
KIAHGTTTLAFRFQGGI [PRE2]	3.03 ± 0.095	3.11 ± 0.073	2.84 ± 0.067	3.1 ± 0.069
STGLKNASDALKGRVVE [RPS1B]	3.21 ± 0.15	3.04 ± 0.099	2.91 ± 0.12	2.67 ± 0.07
LEEKLYQMQSNYESVFT [YIL149C/MLP2]	2.24 ± 0.052	1.71 ± 0.028	2.52 ± 0.068	2.57 ± 0.045
KGLIKVNGSPITLVEPE [RPS16A]	3.09 ± 0.095	3.42 ± 0.13	3.06 ± 0.082	3.24 ± 0.11
MEDPPSTVSGELNDNPA [YMR153W/NUP53]	2.45 ± 0.081	2.81 ± 0.054	2.84 ± 0.077	2.83 ± 0.051
AAAFSQQQNASSKLYQM [GAL11]	2.71 ± 0.097	2.86 ± 0.071	2.82 ± 0.045	3.25 ± 0.072
NAARKAEASGEAAEEAE [RPS9B]	3.81 ± 0.29	3.39 ± 0.24		2.89 ± 0.28
LTSSKSVIVSQFCAFDS [SIN4]	2 ± 0.066	2.14 ± 0.06	1.98 ± 0.1	1.64 ± 0.066
IEMKDVSSKPSKPESSV [MED1]	3.15 ± 0.12	3.33 ± 0.11	2.89 ± 0.076	3.25 ± 0.064
EEAGSPLVYRHELITNI [RPB9]	3.17 ± 0.076	3.39 ± 0.058	3.28 ± 0.049	3.38 ± 0.06
ILEELDFVRNELNDIDT [SMC3]	3.08 ± 0.2			
KTESQDVETRVQNLEQT [DPB4]	3.49 ± 0.091	3.32 ± 0.065	3.2 ± 0.047	3.24 ± 0.048
LPSGVLSRGDDEVTIRR [SMC3]	3.44 ± 0.083	3.25 ± 0.12	3.2 ± 0.069	3.27 ± 0.068
GKKKSATAVAHVKAGKG [RPS16A]	2.86 ± 0.094	2.69 ± 0.073	2.49 ± 0.11	2.53 ± 0.11
TAPSSQRRVLLSAPLSK [RPL26A]	2.45 ± 0.045	2.31 ± 0.053	2.31 ± 0.055	2.18 ± 0.036
